# Patent publication US20190106498A1, “TREATMENT FOR ACUTE MYELOID LEUKEMIA” (priority 2017, published 2019)
# T1: CD70 (Homo sapiens, UniProt P32970)
# T1 sequence (P32970 1-193): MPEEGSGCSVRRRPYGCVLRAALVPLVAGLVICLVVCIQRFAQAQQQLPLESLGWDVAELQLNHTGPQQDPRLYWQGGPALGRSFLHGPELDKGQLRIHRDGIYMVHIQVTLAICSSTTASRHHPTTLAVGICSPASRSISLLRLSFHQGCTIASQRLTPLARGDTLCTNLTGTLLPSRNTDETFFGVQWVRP
# B1: ARGX-110: IgG1 anti-CD70 antibody with defucosylated Fc region; VH SEQ ID NO: 4, VL SEQ ID NO: 8 (antibody, V domains shown)
# VH: EVQLVESGGGLVQPGGSLRLSCAASGFTFSVYYMNWVRQAPGKGLEWVSDINNEGGTTYYADSVKGRFTISRDNSKNSLYLQMNSLRAEDTAVYYCARDAGYSNHVPIFDSWGQGTLVTVSS
# VL: QAVVTQEPSLTVSPGGTVTLTCGLKSGSVTSDNFPTWYQQTPGQAPRLLIYNTNTRHSGVPDRFSGSILGNKAALTITGAQADDEAEYFCALFISNPSVEFGGGTQLTVLG
# modifications: IgG1, defucosylated Fc; Custom antibody fragment
# What was measured:
# [1] = molecular target: T1, CD70; conditions: cited from earlier work
# [2] = tested on: AML; assay: Phase I/II trial of ARGX-110 with AZA: clinical response; format: in vivo, human; conditions: for Time to best response: cycle/day
# From the text: The study included a screening phase (between Day −35 and Day −14), a loading dose of ARGX-110 (Day −14) and an open-label treatment phase during which subjects visited the study center for administration of the study drug (Day −14 until disease progression), and end-of-treatment (EOT) evaluations performed within 7 days after the last ARGX-110 treatment. Additional follow-up evaluations were scheduled at 30 and 60 days (±7 days) after the EOT date. The 60-days follow-up visit was also the end-of-study (EOS) visit.
# Clinical response to treatment was categorised according Table 3: […]
# [3] = ARGX-110 concentration in bone marrow aspirates versus plasma; format: in vivo, human
# Experimental: Concentration of ARGX-110 in bone marrow aspirates was measured in limited samples and compared to the matching plasma samples.
# [4] = Serum pharmacokinetics of ARGX-110 (ELISA); format: in vivo, human
# Experimental: FIG. 11 The serum concentration of ARGX-110 was analyzed using a validated enzyme-linked immunosorbent assay (ELISA) method. Individual patient PK plots are provided for 10 mg/kg cohort. The PK plot presents data for ARGX-110 cycle1 (D-14 pre-dose until Cycle1 D1 pre-dose).
# The serum concentrations of ARGX-110 were analysed using a validated enzyme-linked immunosorbent assay (ELISA) method. The following pharmacokinetic parameters were assessed: • Cmax: maximum observed concentration; Ctrough: trough concentration; AUC∞: area under the serum concentration-time curve from time zero to infinity; AUCtau: area under the serum concentration-time curve during the dosing interval; Vd: apparent volume of distribution; CL: total systemic clearance of drug after IV administration; t1/2: half-life.
# The serum concentration of ARGX-110 was analysed using a validated enzyme-linked immunosorbent assay (ELISA) method. FIG. 11 provides individual patient PK plots for the 10 mg/kg cohort. The PK plot presents data for ARGX-110 cycle 1 (D-14 pre-dose until Cycle1 D1 pre-dose).
# [5] = tested on: CD70-expressing tumor cells; conditions: cited from earlier work
# [6] = Phase I/II trial: adverse events and toxicity
# Experimental: Subjects received a loading dose of ARGX-110 on Day −14, followed by administration of ARGX-110 in combination with standard doses of AZA. Doses of ARGX-110 were administered intravenously every 2 weeks (loading dose at Day −14 and further doses on Days 3 and 17) in combination with standard doses of AZA to determine the dose limiting toxicity (see FIG. 4). The first patient of each cohort was monitored until day 7 before a second patient was included. […] The ARGX-110 dose level in the first cohort in Phase I was 1 mg/kg body weight.
# All subjects in the study received a single loading dose of ARGX-110 on Day −14, at the same dose level as the bi-weekly dose. Subjects in Phase I of the study received one of the following treatments: • Cohort 1: 1 mg/kg body weight IV on Days 3 and 17 of a 28-day cycle • Cohort 2: 3 mg/kg body weight IV on Days 3 and 17 of a 28-day cycle • Cohort 3: 10 mg/kg body weight IV on Days 3 and 17 of a 28-day cycle • Cohort 4: 20 mg/kg body weight IV on Days 3 and 17 of a 28-day cycle
# [7] = tested on: soluble CD27; assay: Serum soluble CD27 ELISA in patients; format: in vivo, human; conditions: representative patient
# Experimental: FIG. 10 The serum samples were analysed using an ELISA (Duoset ELISA, human CD27/TNFRSF7 (cat: DY382-05, R&D Systems). Concentration of soluble CD27 in the sample is calculated from a calibration curve. The method allows measurement of the serum concentration of natural human soluble CD27 by means of a sandwich ELISA method. Goat Anti-Human CD27 Capture antibody is coated on a microplate and nonspecific binding sites are blocked. Human serum samples are applied and bound human soluble CD27 is detected and visualized by the subsequent additions of Biotinylated Goat Anti-Human CD27 Detection antibody, Streptavidin-HRP and the mixture of the colour reagent H2O2 and the chromogenic substrate tetramethylbenzidine (TMB).
# To assess the effect of anti-CD70 monotherapy and combination therapy on the CD27/CD70 interaction as well as to further explore the effect on blast percentage and stemness, patients' soluble CD27 levels were also measured.
# [8] = patients treated for sufficient time to assess response
# [9] = patient 1001005, 3 mg/kg, Cycle 7 Day 2
# [10] = patient 1001007, 10 mg/kg, Cycle 4 Day 1
molecule,measurement,setting,value
B1,CD70-induced CD27 signalling,[1],inhibit CD70-induced CD27 signalling
same,interaction of CD70 with CD27,[1],inhibit the interaction of CD70 with its receptor CD27
same,Time to best response,"[2]; Cohort 1 (1 mg/kg) with AZA, one line per patient, 1 mg/kg",EOT
same,Time to best response,"[2]; Cohort 2 (3 mg/kg) with AZA, one line per patient, 3 mg/kg",EOT
same,Best response to date,"[2]; Cohort 4 (20 mg/kg) with AZA, one line per patient, 20 mg/kg",No response
same,patients in each cohort showing complete remission,"[2]; each of the 1 mg/kg, 3 mg/kg and 10 mg/kg cohorts",2 of the 3
same,patients responding (response rate),[2]; [8],more than 90%
same,responding patients / assessed patients,[2]; [8],10/11
same,CARGX-110 BM aspirate,[3]; [9],33.1 µg/mL
same,CARGX-110 plasma,[3]; [9],37.3 µg/mL
same,CARGX-110 BM aspirate,[3]; [10],117.7 µg/mL
same,CARGX-110 plasma,[3]; [10],126.6 µg/mL
same,concentration in bone marrow aspirates versus plasma,[3]; patients 1001005 and 1001007,comparable to the plasma levels
same,half-life,[4]; 10 mg/kg,approximately 9.2 days
same,Cmax and AUC over the dose range studied,[4]; all cohorts,dose proportionality
same,antibody dependent cellular phagocytosis (ADCP),[5],increase antibody dependent cellular phagocytosis (ADCP) of CD70-expressing cells
same,lysis via ADCC and CDC,[5],lyse CD70-expressing tumor cells
same,ADCC functionality,[5]; defucosylated Fc (Potelligent),increased ADCC functionality compared to a fucosylated counterpart
same,"Anaemia, Grade 3-5 adverse events: (patients)","[6]; Cohort 1 (1 mg/kg), with AZA",1
same,"Anaemia, Grade 3-5 adverse events: Events","[6]; Cohort 1 (1 mg/kg), with AZA",4
same,"Febrile Neutropenia, Grade 3-5 adverse events: (patients)","[6]; Cohort 1 (1 mg/kg), with AZA",2 (2)
same,"Febrile Neutropenia, Grade 3-5 adverse events: Events","[6]; Cohort 1 (1 mg/kg), with AZA",2 (2)
same,"Leukopenia, Grade 3-5 adverse events: (patients)","[6]; Cohort 1 (1 mg/kg), with AZA",1 (1)
same,"Leukopenia, Grade 3-5 adverse events: Events","[6]; Cohort 1 (1 mg/kg), with AZA",1 (1)
same,"Neutropenia, Grade 3-5 adverse events: (patients)","[6]; Cohort 1 (1 mg/kg), with AZA",1
same,"Neutropenia, Grade 3-5 adverse events: Events","[6]; Cohort 1 (1 mg/kg), with AZA",2
same,"Pleuropericarditis, Grade 3-5 adverse events: (patients)","[6]; Cohort 1 (1 mg/kg), with AZA",1 (1)
same,"Pleuropericarditis, Grade 3-5 adverse events: Events","[6]; Cohort 1 (1 mg/kg), with AZA",1 (1)
same,"Thrombocytopenia, Grade 3-5 adverse events: (patients)","[6]; Cohort 1 (1 mg/kg), with AZA",2
same,"Thrombocytopenia, Grade 3-5 adverse events: Events","[6]; Cohort 1 (1 mg/kg), with AZA",8
same,"Anaemia, Grade 3-5 adverse events: (patients)","[6]; Cohort 2 (3 mg/kg), with AZA",3
same,"Anaemia, Grade 3-5 adverse events: Events","[6]; Cohort 2 (3 mg/kg), with AZA",10
same,"Constipation, Grade 3-5 adverse events: (patients)","[6]; Cohort 2 (3 mg/kg), with AZA",1 (1)
same,"Constipation, Grade 3-5 adverse events: Events","[6]; Cohort 2 (3 mg/kg), with AZA",1 (1)
same,"Fever, Grade 3-5 adverse events: (patients)","[6]; Cohort 2 (3 mg/kg), with AZA",1 (1)
same,"Fever, Grade 3-5 adverse events: Events","[6]; Cohort 2 (3 mg/kg), with AZA",1 (1)
same,"Hypertension, Grade 3-5 adverse events: (patients)","[6]; Cohort 2 (3 mg/kg), with AZA",1
same,"Hypertension, Grade 3-5 adverse events: Events","[6]; Cohort 2 (3 mg/kg), with AZA",2
same,"Hypokalaemia, Grade 3-5 adverse events: (patients)","[6]; Cohort 2 (3 mg/kg), with AZA",1 (1)
same,"Hypokalaemia, Grade 3-5 adverse events: Events","[6]; Cohort 2 (3 mg/kg), with AZA",1 (1)
same,"Leukopenia, Grade 3-5 adverse events: (patients)","[6]; Cohort 2 (3 mg/kg), with AZA",1 (1)
same,"Leukopenia, Grade 3-5 adverse events: Events","[6]; Cohort 2 (3 mg/kg), with AZA",1 (1)
same,"Neutropenia, Grade 3-5 adverse events: (patients)","[6]; Cohort 2 (3 mg/kg), with AZA",1
same,"Neutropenia, Grade 3-5 adverse events: Events","[6]; Cohort 2 (3 mg/kg), with AZA",4
same,"Proctitis, Grade 3-5 adverse events: (patients)","[6]; Cohort 2 (3 mg/kg), with AZA",1
same,"Proctitis, Grade 3-5 adverse events: Events","[6]; Cohort 2 (3 mg/kg), with AZA",2
same,"Thrombocytopenia, Grade 3-5 adverse events: (patients)","[6]; Cohort 2 (3 mg/kg), with AZA",3 (3)
same,"Thrombocytopenia, Grade 3-5 adverse events: Events","[6]; Cohort 2 (3 mg/kg), with AZA",3 (3)
same,"Disease Progression, Grade 3-5 adverse events: (patients)","[6]; Cohort 3 (10 mg/kg), with AZA",1 (1)
same,"Disease Progression, Grade 3-5 adverse events: Events","[6]; Cohort 3 (10 mg/kg), with AZA",1 (1)
same,"Febrile Neutropenia, Grade 3-5 adverse events: (patients)","[6]; Cohort 3 (10 mg/kg), with AZA",1 (1)
same,"Febrile Neutropenia, Grade 3-5 adverse events: Events","[6]; Cohort 3 (10 mg/kg), with AZA",1 (1)
same,"Thrombocytopenia, Grade 3-5 adverse events: (patients)","[6]; Cohort 3 (10 mg/kg), with AZA",1
same,"Thrombocytopenia, Grade 3-5 adverse events: Events","[6]; Cohort 3 (10 mg/kg), with AZA",2
same,"Anaemia, Grade 3-5 adverse events: (patients)","[6]; Cohort 4 (20 mg/kg), with AZA",1
same,"Anaemia, Grade 3-5 adverse events: Events","[6]; Cohort 4 (20 mg/kg), with AZA",2
same,"Febrile Neutropenia, Grade 3-5 adverse events: (patients)","[6]; Cohort 4 (20 mg/kg), with AZA",1 (1)
same,"Febrile Neutropenia, Grade 3-5 adverse events: Events","[6]; Cohort 4 (20 mg/kg), with AZA",1 (1)
same,"Thrombocytopenia, Grade 3-5 adverse events: (patients)","[6]; Cohort 4 (20 mg/kg), with AZA",2 (2)
same,"Thrombocytopenia, Grade 3-5 adverse events: Events","[6]; Cohort 4 (20 mg/kg), with AZA",2 (2)
same,"Anaemia, Grade 3-5 adverse events: Total",[6]; all cohorts,16
same,"Constipation, Grade 3-5 adverse events: Total",[6]; all cohorts,1
same,"Disease Progression, Grade 3-5 adverse events: Total",[6]; all cohorts,1
same,"Febrile Neutropenia, Grade 3-5 adverse events: Total",[6]; all cohorts,4
same,"Fever, Grade 3-5 adverse events: Total",[6]; all cohorts,1
same,"Hypertension, Grade 3-5 adverse events: Total",[6]; all cohorts,2
same,"Hypokalaemia, Grade 3-5 adverse events: Total",[6]; all cohorts,1
same,"Leukopenia, Grade 3-5 adverse events: Total",[6]; all cohorts,1
same,"Neutropenia, Grade 3-5 adverse events: Total",[6]; all cohorts,6
same,"Pleuropericarditis, Grade 3-5 adverse events: Total",[6]; all cohorts,1
same,"Proctitis, Grade 3-5 adverse events: Total",[6]; all cohorts,2
same,"Thrombocytopenia, Grade 3-5 adverse events: Total",[6]; all cohorts,15
same,toxicity,[6]; monotherapy or in combination with aza,did not result in any observed increase in toxicity
same,sCD27 levels after the end of treatment (EOT),[7],rise after the end of treatment
same,sCD27 levels,"[7]; monotherapy C1D1 vs Loading, then combination therapy",reduces sCD27 levels compared to before treatment
